In article doi:10.1101/2022.01.04.474899 (bioRxiv, 2022):

Biological target: the molecule itself
Assay: SDS-PAGE immunoblot

B1: recombinant human asprosin with C-terminal 2×Strep-tag II (natural protein, UniProt P35555 2732-2871, looked up)
chain: STNETDASNIEDQSETEANVSLASWDVEKTAIFAFNISHVSNKVRILELLPALTTLTNHNRYLIESGNEDGFFKINQKEGISYLHFTKKKPVAGTYSLQISSTPLYKKKELNQLEDKYDKDYLSGELGDNLKMKIQVLLH
  stoichiometry N: 4
